Laboratory results taken from paper PMC5066845.
Blank lines part the entries; values can stand above or below the substance they belong to.

Columns and labels:
[1] = biological target: F-actin polymerised on a streptavidin biosensor from biotinylated and non-biotinylated G-actin (1:4) (rabbit | human) (UniProt P68135); test: BLI
[2] = biological target: mouse DNGR-1 extracellular domain (ECD), wild type (mouse); test: BLI

Kd [1]: 2.7 µM
Substance: mouse DNGR-1 ECD N140A Y150A (domain or fragment)

Kd [1]: > 50 µM
Substance: mouse DNGR-1 ECD K251A (domain or fragment)

Kd [2]: 0.0087 µM | koff [2]: 6.4e-05 s⁻¹ | kon [2]: 7600 M⁻¹ s⁻¹
Substance: short F-actin filaments capped and stabilized with gelsolin (from UniProt P60709;P06396) (complex)

Kd [1]: > 100 µM
Substance: mouse DNGR-1 ECD W155A W250A (domain or fragment)

Kd [1]: 1.6 µM | koff [1]: 0.848 s⁻¹ | kon [1]: 1.5e+06 M⁻¹ s⁻¹
Substance: mouse DNGR-1 extracellular domain (ECD), wild type (domain or fragment)
